Experimental data reported in paper doi:10.1101/2025.08.03.668247, “The structure of Egalitarian in complex with the K10 mRNA localization signal reveals a modular binding surface required for function”.

Columns and labels:
Assay in all cases: fluorescence anisotropy; FA: 20 mM HEPES-NaOH pH 7.5, 100 mM NaCl, 10% glycerol, 20 C, 10 nM FAM-RNA; competition: 150 nM Egl512-819 + 10 nM FAM-K10 TLS, same buffer
K659E/K754E = target: T1, K659E/K754E (Drosophila melanogaster, UniProt Q9W1K4 512-819, K659E;K754E); conditions: protein: recombinant; tags: N-terminal GST; label: 5'-6-FAM; hairpin with two bulges
T1 sequence: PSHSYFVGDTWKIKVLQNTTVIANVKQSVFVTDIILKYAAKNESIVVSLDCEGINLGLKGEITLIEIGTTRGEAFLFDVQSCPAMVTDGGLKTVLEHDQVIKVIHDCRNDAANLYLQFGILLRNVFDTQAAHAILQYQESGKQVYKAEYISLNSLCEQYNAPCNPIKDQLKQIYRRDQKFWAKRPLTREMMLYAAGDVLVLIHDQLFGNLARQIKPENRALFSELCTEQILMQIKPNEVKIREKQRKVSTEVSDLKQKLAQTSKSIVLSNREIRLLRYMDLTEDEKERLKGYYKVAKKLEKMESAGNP

GST-Egl512-819 = target: T2, GST-Egl512-819 (Drosophila melanogaster, UniProt Q9W1K4 512-819); conditions: protein: recombinant; tags: N-terminal GST (TEV site); label: 5'-6-FAM; hairpin with two bulges
T2 sequence: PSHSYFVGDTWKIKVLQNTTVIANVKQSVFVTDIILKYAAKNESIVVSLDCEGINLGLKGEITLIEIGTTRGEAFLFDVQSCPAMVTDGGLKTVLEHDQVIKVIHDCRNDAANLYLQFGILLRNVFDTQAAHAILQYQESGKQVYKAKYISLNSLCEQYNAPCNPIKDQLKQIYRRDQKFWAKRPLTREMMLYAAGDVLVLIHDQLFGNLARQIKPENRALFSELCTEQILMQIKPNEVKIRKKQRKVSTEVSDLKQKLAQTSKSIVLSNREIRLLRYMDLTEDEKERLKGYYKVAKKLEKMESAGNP

R753A = target: T3, R753A (Drosophila melanogaster, UniProt Q9W1K4 512-819, R753A); conditions: protein: recombinant; tags: N-terminal GST; label: 5'-6-FAM; hairpin with two bulges
T3 sequence: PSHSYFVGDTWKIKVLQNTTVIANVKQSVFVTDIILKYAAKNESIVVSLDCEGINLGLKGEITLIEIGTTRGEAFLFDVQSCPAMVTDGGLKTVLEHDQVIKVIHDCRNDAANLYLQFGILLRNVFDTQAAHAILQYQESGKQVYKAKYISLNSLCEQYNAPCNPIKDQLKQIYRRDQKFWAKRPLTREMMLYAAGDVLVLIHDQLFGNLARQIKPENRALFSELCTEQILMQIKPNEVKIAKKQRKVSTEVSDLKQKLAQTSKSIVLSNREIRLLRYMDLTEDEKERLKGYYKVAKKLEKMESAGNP

R619E = target: T4, R619E (Drosophila melanogaster, UniProt Q9W1K4 512-819, R619E); conditions: protein: recombinant; tags: N-terminal GST; label: 5'-6-FAM; hairpin with two bulges
T4 sequence: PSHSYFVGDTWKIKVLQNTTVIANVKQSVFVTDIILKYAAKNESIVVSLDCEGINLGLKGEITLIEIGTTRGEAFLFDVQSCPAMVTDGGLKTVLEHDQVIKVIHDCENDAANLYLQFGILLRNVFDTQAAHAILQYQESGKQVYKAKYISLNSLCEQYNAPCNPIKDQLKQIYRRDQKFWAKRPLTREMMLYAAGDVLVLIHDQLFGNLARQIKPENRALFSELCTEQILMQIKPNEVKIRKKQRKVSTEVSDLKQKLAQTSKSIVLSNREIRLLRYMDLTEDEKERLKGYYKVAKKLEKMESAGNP

Egl512-1004 = target: T5, Egl512-1004 (Drosophila melanogaster, UniProt Q9W1K4 512-1004); conditions: protein: recombinant; tags: N-terminal GST; label: 5'-6-FAM; hairpin with two bulges
T5 sequence: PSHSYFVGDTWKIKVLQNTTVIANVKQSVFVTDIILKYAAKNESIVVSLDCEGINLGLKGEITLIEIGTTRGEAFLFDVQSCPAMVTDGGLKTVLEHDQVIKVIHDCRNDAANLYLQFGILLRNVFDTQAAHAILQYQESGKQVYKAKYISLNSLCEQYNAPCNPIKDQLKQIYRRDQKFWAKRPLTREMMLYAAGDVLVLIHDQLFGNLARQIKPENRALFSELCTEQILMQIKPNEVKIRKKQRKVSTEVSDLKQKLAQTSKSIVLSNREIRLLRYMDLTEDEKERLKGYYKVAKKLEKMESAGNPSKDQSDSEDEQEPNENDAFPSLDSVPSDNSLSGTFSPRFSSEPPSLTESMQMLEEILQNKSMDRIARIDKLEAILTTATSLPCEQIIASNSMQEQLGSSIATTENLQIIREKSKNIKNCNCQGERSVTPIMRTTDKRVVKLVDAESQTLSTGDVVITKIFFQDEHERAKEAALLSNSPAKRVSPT

Binder: CUUGAUUGUAUUUUUAAAUUAAUUCUUAAAAACUACAAAUUAAG (structured_RNA) [K10 TLS (FAM)]
- Kd (K659E/K754E): 433 ± 42 nM
- Kd (GST-Egl512-819): 130 ± 6 nM
- Kd (R753A): 95 ± 5 nM
- Kd (R619E): 318 ± 15 nM
- Kd (Egl512-1004): 144 ± 6 nM
